Common to all, as to assay: cell-based or functional assay
Experiment [1] concerns the target human FcγRIIa, high-affinity H131 variant, on Jurkat/NFAT-Luc effector cells (human) (UniProt P12318).
Experiment [2] addresses human FcγRIIa, low-affinity R131 variant, on Jurkat/NFAT-Luc effector cells (human) (UniProt P12318).
Experiment [3] addresses human FcγRIIb on Jurkat/NFAT-Luc effector cells (human) (UniProt P31994).
Experiment [4] addresses mouse FcγRIII on Jurkat/NFAT-Luc effector cells (mouse) (UniProt P08508).
In experiment [5] the target is mouse FcγRIV on Jurkat/NFAT-Luc effector cells (mouse).

The text below walks through data of patent US20230265192A1.

Chain of human FcγRIIb on Jurkat/NFAT-Luc effector cells (human) (P31994 43-310): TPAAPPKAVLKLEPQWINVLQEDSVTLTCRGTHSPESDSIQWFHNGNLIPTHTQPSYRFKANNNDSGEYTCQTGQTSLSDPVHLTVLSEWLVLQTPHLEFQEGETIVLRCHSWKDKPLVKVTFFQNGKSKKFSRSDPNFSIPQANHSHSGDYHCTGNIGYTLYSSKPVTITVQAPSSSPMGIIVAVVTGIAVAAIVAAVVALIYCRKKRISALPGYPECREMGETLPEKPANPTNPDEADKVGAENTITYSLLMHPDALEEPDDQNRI
Chain of human FcγRIIa, high-affinity H131 variant, on Jurkat/NFAT-Luc effector cells (human) (P12318 34-317, change not shown): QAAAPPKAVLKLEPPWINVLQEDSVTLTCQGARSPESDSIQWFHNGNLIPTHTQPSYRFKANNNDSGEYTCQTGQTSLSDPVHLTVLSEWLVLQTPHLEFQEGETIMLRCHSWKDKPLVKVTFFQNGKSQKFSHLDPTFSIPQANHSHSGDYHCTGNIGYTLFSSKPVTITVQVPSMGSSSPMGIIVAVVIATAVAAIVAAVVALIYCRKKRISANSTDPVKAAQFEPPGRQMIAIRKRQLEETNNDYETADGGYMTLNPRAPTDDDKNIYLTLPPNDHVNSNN
Chain of mouse FcγRIV on Jurkat/NFAT-Luc effector cells (mouse) (A0A0B4J1G0 21-203): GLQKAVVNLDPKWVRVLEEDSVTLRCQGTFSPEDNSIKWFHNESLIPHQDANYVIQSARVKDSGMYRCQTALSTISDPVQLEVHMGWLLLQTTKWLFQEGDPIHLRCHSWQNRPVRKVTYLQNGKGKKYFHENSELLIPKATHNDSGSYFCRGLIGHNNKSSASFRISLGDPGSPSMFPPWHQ
Chain of human FcγRIIa, low-affinity R131 variant, on Jurkat/NFAT-Luc effector cells (human) (P12318 other isoform, or with tags, fused parts or gaps mutant limits assumed): as the sequence (P12318 34-317, change not shown) above, with H134R counted along it
Chain of mouse FcγRIII on Jurkat/NFAT-Luc effector cells (mouse) (P08508 31-261): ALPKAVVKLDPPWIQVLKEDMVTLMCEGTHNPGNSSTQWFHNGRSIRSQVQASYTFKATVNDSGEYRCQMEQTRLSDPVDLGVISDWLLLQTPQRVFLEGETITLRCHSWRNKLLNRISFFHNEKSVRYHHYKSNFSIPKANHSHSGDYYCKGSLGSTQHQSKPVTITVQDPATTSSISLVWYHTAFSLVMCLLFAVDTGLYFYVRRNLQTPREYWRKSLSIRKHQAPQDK

Regarding Ipilimumab (antibody), the EC50 (µg/mL), FcR reporter bioassay in experiment [1] is 0.05 µg/mL; in experiment [2], 0.21 µg/mL; in experiment [3] it was 0.17 µg/mL; in experiment [5], 2.21 µg/mL. Moreover, the Maximum luminescence (RLU), FcR reporter bioassay in experiment [1] was determined as 973 RLU; in experiment [2], 2640 RLU; in experiment [3], 5800 RLU; in experiment [4], 17500 RLU; in experiment [5], 990 RLU.
